We go through one sequence from article PMC7589614.

Read-outs that look alike come from different tables or passages of the source.

For series [1], the target named is AbnA-D2 (D2), his-tagged arabinase family protein (Geobacillus stearothermophilus T-6) (UniProt B3EYN2). Put plainly: porous silicon RIFTS (EOT) biosensor. Particulars: 5'-amino; Selection buffers listed (assay buffer and temperature not stated in material): AGR2 137 mM NaCl, 20 mM KCl, 10 mM Na2HPO4, 2 mM KH2PO4 pH 7.4; 6H7 50 mM ….
Series [2] has the same target. Particulars: 5'-amino; Selection buffers listed (assay buffer and temperature not stated in material): AGR2 137 mM NaCl, 20 mM KCl, 10 mM Na2HPO4, 2 mM KH2PO4 pH 7.4; 6H7 50 mM …; cited from earlier work.

For orientation: Kd means the concentration at which binding is half-saturated. Take “GCTATGGGTGGTCTGGTTGGGATTGGCCCCGGGAGCTGGC [anti-his tag aptamer 6H7]”: the equilibrium dissociation constant (Kd) in series [1] is 29 µM; in series [2] it was 4.6 µM.
